# Test results taken from paper PMC3293223 (Biochemistry, 2012).
# What was measured:
# [1] = molecular target: thioredoxin mutant including only C32 (TRXC32) (UniProt P10599); test: cross-linking
# SEC = molecular target: the molecule itself; test: SEC
stoichiometry N [1],Molecule,binding result (SEC)
2,thioredoxin mutant including only C32 (TRXC32) (from UniProt P10599 1-105) (enzyme),
,"N-terminally truncated APE1 including only Cys 99 with all other Cys residues mutated to Ala (40APE1 C99) (domain or fragment, human, UniProt P27695 41-318, looked up, Cys 99 oxidised with 1 mM diamide before the reaction with TRXC32) GPALYEDPPDQKTSPSGKPATLKIASWNVDGLRAWIKKKGLDWVKEEAPDILALQETKCSENKLPAELQELPGLSHQYWSAPSDKEGYSGVGLLSRQAPLKVSYGIGDEEHDQEGRVIVAEFDSFVLVTAYVPNAGRGLVRLEYRQRWDEAFRKFLKGLASRKPLVLAGDLNVAHEEIDLRNPKGNKKNAGFTPQERQGFGELLQAVPLADSFRHLYPNTPYAYTFWTYMMNARSKNVGWRLDYFLLSHSLLPALADSKIRSKALGSDHAPITLYLAL",binds
